{"source": "patent US6342477B1", "about": "“Remedies for thrombocytopenia” (Chugai Seiyaku Kabushiki Kaisha, priority 1996, dated 2002)", "molecules": {"B1": {"name": "human PTH(1-84) (protein, UniProt P01270 32-115, looked up)", "Parathyroid hormone": "SVSEIQLMHNLGKHLNSMERVEWLRKKLQDVHNFVALGAPLAPRDAGSQRPRKKEDNVLVESHEKSLGEADKADVNVLTKAKSQ", "modifications": "Parathyroid hormone"}}, "format_in_all_cases": "in vivo", "key": {"C57Bl/6N mice [1]": {"test_system": "C57Bl/6N mice", "experiment": "Effectiveness of PTH derivative, daily administration to mouse (peripheral platelet count)", "settings": "200 μg/kg subcutaneously once a day for six days, blood 24 h after final administration", "method": "Ten-week old male C57Bl/6N mice as purchased from Japan Charles River Co., Ltd. were used in the experiment.\nDrug solutions to be administered were prepared basically from human PTH(1-84) and human PTH(1-34) by the same procedure as in Example 1 to give a drug concentration of 20 μg/mL.\nEighteen mice were divided into three groups, which were administered subcutaneously with the two drug solutions and a control (citrate buffer) for six days on a once-a-day basis in a volume of 10 mL/kg. […] The administration was initiated at 10 a.m.\nAfter 24 h of the final administration, a blood sample was withdrawn from each mouse through the orbital vein. Peripheral corpuscle counts were obtained with an automatic corpuscle counter F-800 (TOA MEDICAL ELECTRONICS CO., LTD)"}, "C57Bl/6N mice [2]": {"test_system": "C57Bl/6N mice", "experiment": "Test for single-dose administration to mouse (peripheral platelet count)", "settings": "single dose 10 μg/kg through the tail vein", "method": "Nine-week old male C57Bl/6N mice as purchased from Japan Charles River Co. Ltd. were used in the experiment. (Preparation of Drug Solutions to be Administered) Human PTH(1-84) was dissolved in a citrate buffer (pH-5; containing 0.05% of Tween 80) at final concentrations of 1, 0.2 and 0.04 μg/mL so as to prepare the drug solutions to be administered.\nEach of the thus prepared drug solutions and a control (citrate buffer) was administered to 15 mice through the tail vein in a volume of 10 mL/kg. […] The administration was initiated at 10 a.m.\nAfter 3, 6 and 9 hours of the administration, five mice were picked up at random from each group of animals and blood samples were withdrawn through the orbital vein. At 10 a.m. on the same day, separate blood samples were taken from untreated mice (four in number) to obtain the pre-administration value. Peripheral corpuscle counts were obtained with an automatic corpuscle counter F-800 (TOA MEDICAL ELECTRONICS CO., LTD.)"}, "[3]": {"test_system": "Japanese albino rabbits JW/CSK", "experiment": "Test for daily administration to rabbit (platelet count)", "settings": "200 μg/kg subcutaneously daily", "method": "Six 12-15 week old male Japanese albino rabbits JW/CSK were used in the experiment. The animals were individually kept in aluminum rabbit bracket cages Rb-1 (350^w×500^d×350^h mm) in a vavarium in a specific pathogen-free environment under the following conditions: temperature, 24±2° C.; humidity, 50±10%; illumination, light turned on at 5:00 and turned off at 19:00; ventilation, 15 changes/hr. Each animal was supplied with 120 g of a radiation-sterilized feed for rabbits RM (purchased from Funahashi Farm) per day. The animals were also allowed to drink to tap water ad libitum from an automatic water feeder.\nHuman PTH(1-84) was administered in a volume of 2 mL/vial at a concentration of 200 μg/mL. A solvent was also supplied in a volume of 2 mL/vial. Both the drug and the control were stored at −135° C. until use.\nPTH (200 μg/kg) was administered to the rabbits subcutaneously at the back of their neck for 13 consecutive days. The solvent was similarly administered in the same volume as the dose of a rh-PTH solution calculated from their body weight.\nBlood samples (0.5 mL) were withdrawn from the rabbits through the lateral auricular vein before the administration and on days 2, 6, 9 and 13 during the administration period. […]"}, "C57Bl/6N mice [4]": {"test_system": "C57Bl/6N mice", "experiment": "Test for daily administration to mouse (peripheral platelet count)", "settings": "for platelet count: day 5", "method": "Nine-week old male C57Bl/6N mice as purchased from Japan Charles River Co., Ltd. were used in the experiment.\nDrug solutions to be administered were prepared basically by the same procedure as in Example 1 to give drug concentrations of […].\nThe mice under test were divided into four groups, which were administered subcutaneously with the three drug solutions and a control (citrate buffer) once a day in a volume of 10 mL/kg. […] The administration was initiated at 10 a.m.\n(Blood Sampling and Counting Peripheral Corpuscles) On days 5, 7 and 9 after the start of administration, five or six mice were picked up at random from each group of animals and blood samples were withdrawn through the orbital vein. The sampling of blood was timed to occur 24 h of the final administration. Separate blood samples were taken from untreated mice (five in number) to obtain the value for normal mouse. Peripheral corpuscle counts were obtained with an automatic corpuscle counter F-800 (TOA MEDICAL ELECTRONICS CO., LTD.)"}}}
{"molecule": "B1", "values": [{"measurement": "platelet increasing action", "setting": "C57Bl/6N mice [1]", "result": "platelet increasing action"}, {"measurement": "platelet counts over the control", "setting": "C57Bl/6N mice [2]; 6 h after the administration", "result": "significant increase"}, {"measurement": "platelet counts over the control", "setting": "C57Bl/6N mice [2]; 9 h after the administration", "result": "significant increase"}, {"measurement": "platelet count relative to the initial level", "setting": "[3]; day 13", "result": "substantially returned to the initial level"}, {"measurement": "platelet count relative to the initial value", "setting": "[3]; increase from day 2 until day 6", "result": "two to four"}, {"measurement": "platelet count", "setting": "C57Bl/6N mice [4]; 200 μg/kg subcutaneously once a day", "result": "tendency to increase"}, {"measurement": "platelet count", "setting": "C57Bl/6N mice [4]; 800 μg/kg subcutaneously once a day", "result": "tendency to increase"}, {"measurement": "platelet count versus the control", "setting": "C57Bl/6N mice [4]; all treated groups (50, 200, 800 μg/kg subcutaneously once a day), day 7", "result": "significantly higher"}]}
